From patent publication US20230287145A1 (Hoffmann-La Roche, published 2023)
Changes are numbered by the printed parent chain. Names may count otherwise.

B1: Anti-CD3 antibody clone P035.093 in monovalent human IgG1 format (antibody, V domains shown)
VH: EVQLLESGGGLVQPGGSLRLSCAASGFTFSSYAMNWVRQAPGKGLEWVSRIRSKYNNYATYYADSVKGRFTISRDDSKNTLYLQMNSLRAEDTAVYYCVRASNFPASYVSYFAYWGQGTLVTVSS
VL: QAVVTQEPSLTVSPGGTVTLTCGSSTGAVTTSNYANWVQEKPGQAFRGLIGGTNKRAPGTPARFSGSLLGGKAALTLSGAQPEDEAEYYCALWYSNLWVFGGGTKLTVL
notes: Monovalent human IgG1 with crossed VH and VL domains; knob-into-hole; P329G L234A L235A; also called P035.093 (monovalent IgG)
B2: CD3orig in monovalent human IgG1 format (antibody, V domains shown)
VH: not shown
VL: B1 VL
notes: Monovalent human IgG1 with crossed VH and VL domains; knob-into-hole; P329G L234A L235A; also called CD3orig (monovalent IgG)
B3: Anti-CD3 antibody clone P033.078 in monovalent human IgG1 format (antibody, V domains shown)
VH: B1 VH with S30E, N57E, A106S, Y108F, A113G
VL: B1 VL
notes: knob-into-hole; P329G L234A L235A; also called P033.078 (monovalent IgG)
B4: Anti-idiotypic IgG 4.24.72 (parental chimeric antibody) (antibody, V domains shown)
VH: QIQLVQSGPELKKPGETVKISCKASGYTVTDYSMNWVKQAPGKCLKWMGWINTETGEPRYTDDFKGRFAFSLETSASTAYLQINNLKNEDSATYFCAREGDYDVFDYWGHGTTLKVSS
VL: DIVLTQSPASLAVSLGQRATISCRASKSVSTSSYSYMHWYQQKPGQPPKLLIKYVSYLESGVPARFSGSGSGTDFTLNIHPVEEEDAATYYCQHSREFPYTFGCGTKLEIK
notes: Tested as chimeric IgG; also called ID_4.24.72
B5: TYRP1 TCB containing optimized anti-CD3 antibody clone P035.093 (bispecific antibody, human IgG1, kappa, L234A L235A)
heavy 1: not shown
heavy 2: QVQLVQSGAEVKKPGASVKVSCKASGFNIKDYFLHWVRQAPGQGLEWMGWINPDNGNTVYAQKFQGRVTMTADTSTSTVYMELSSLRSEDTAVYYCTRRDYTYEKAALDYWGQGTLVTVSSASTKGPSVFPLAPSSKSTSGGTAALGCLVEDYFPEPVTVSWNSGALTSGVHTFPAVLQSSGLYSLSSVVTVPSSSLGTQTYICNVNHKPSNTKVDEKVEPKSCDKTHTCPPCPAPEAAGGPSVFLFPPKPKDTLMISRTPEVTCVVVDVSHEDPEVKFNWYVDGVEVHNAKTKPREEQYNSTYRVVSVLTVLHQDWLNGKEYKCKVSNKALGAPIEKTISKAKGQPREPQVCTLPPSRDELTKNQVSLSCAVKGFYPSDIAVEWESNGQPENNYKTTPPVLDSDGSFFLVSKLTVDKSRWQQGNVFSCSVMHEALHNHYTQKSLSLSP
light 1: DIQMTQSPSSLSASVGDRVTITCRASGNIYNYLAWYQQKPGKVPKLLIYDAKTLADGVPSRFSGSGSGTDFTLTISSLQPEDVATYYCQHFWSLPFTFGQGTKLEIKRTVAAPSVFIFPPSDRKLKSGTASVVCLLNNFYPREAKVQWKVDNALQSGNSQESVTEQDSKDSTYSLSSTLTLSKADYEKHKVYACEVTHQGLSSPVTKSFNRGEC
light 2: EVQLLESGGGLVQPGGSLRLSCAASGFTFSSYAMNWVRQAPGKGLEWVSRIRSKYNNYATYYADSVKGRFTISRDDSKNTLYLQMNSLRAEDTAVYYCVRASNFPASYVSYFAYWGQGTLVTVSSASVAAPSVFIFPPSDEQLKSGTASVVCLLNNFYPREAKVQWKVDNALQSGNSQESVTEQDSKDSTYSLSSTLTLSKADYEKHKVYACEVTHQGLSSPVTKSFNRGEC
notes: 2+1 IgG CrossFab, inverted, with charge modifications; knob-into-hole, P329G L234A L235A; also called CD3opt (P035.093); CD3 P035.093

Tests used:
[1] = target: T1, Human CD3ε stalk-Fc(knob)-Avi/CD3δ stalk-Fc(hole) (human); experiment: SPR, Biacore T200, 25 °C; monovalent IgG captured by anti-PG antibody on C1 chip, CD3ε/δ-Fc as analyte; triplicates
T1 construct: Heterodimeric Fc fusion; also called human CD3ε/δ; Human CD3 epsilon stalk-Fc(knob)-Avi
Experimental: (§1) Kinetic constants were derived using the Biacore T200 Evaluation Software (GE Healthcare Life Sciences), to fit rate equations for 1:1 Langmuir binding by numerical integration. The half-life (t_{1/2}) of the interaction was calculated using the formula t_{1/2}=ln 2/koff.
(§2) To analyze the interaction to CD3, IgG molecules were captured for 240 s at 50 nM with a flow rate of 5 μl/min. Human and cynomolgus CD3ε stalk-Fc(knob)-Avi/CD3δ-stalk-Fc(hole) were passed at a concentration of 0.061-250 nM with a flow rate of 30 μl/min through the flow cells for 300 s. The dissociation was monitored for 800 s.

[2] = target: T2, Cynomolgus CD3ε stalk-Fc(knob)-Avi/CD3δ stalk-Fc(hole) (cynomolgus); experiment: as above
T2 construct: Heterodimeric Fc fusion; also called cynomolgus CD3ε/δ
T2 sequence (chain, as listed by the source mutant limits assumed, chain 1 of 2): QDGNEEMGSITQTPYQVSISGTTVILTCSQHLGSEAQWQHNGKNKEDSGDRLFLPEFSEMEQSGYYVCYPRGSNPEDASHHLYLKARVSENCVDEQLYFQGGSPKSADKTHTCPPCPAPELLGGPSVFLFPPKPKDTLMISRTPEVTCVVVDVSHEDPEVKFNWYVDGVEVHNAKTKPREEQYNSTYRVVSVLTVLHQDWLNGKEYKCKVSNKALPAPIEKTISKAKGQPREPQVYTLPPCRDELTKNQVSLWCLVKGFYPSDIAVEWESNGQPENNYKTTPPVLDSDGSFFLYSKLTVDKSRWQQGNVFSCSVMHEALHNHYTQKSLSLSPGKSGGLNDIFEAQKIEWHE
T2 sequence (chain, as listed by the source mutant limits assumed, chain 2 of 2): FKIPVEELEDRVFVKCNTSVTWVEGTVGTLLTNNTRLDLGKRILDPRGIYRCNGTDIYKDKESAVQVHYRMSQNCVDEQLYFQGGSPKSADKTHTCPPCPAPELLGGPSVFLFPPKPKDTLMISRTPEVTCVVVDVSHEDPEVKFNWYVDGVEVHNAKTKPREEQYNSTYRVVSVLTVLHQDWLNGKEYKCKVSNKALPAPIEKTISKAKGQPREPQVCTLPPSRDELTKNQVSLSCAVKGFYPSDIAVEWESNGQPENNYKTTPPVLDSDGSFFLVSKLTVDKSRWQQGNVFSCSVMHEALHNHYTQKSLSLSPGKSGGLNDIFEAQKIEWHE
Experimental: as §1, §2

[3] = target: T1, Human CD3ε stalk-Fc(knob)-Avi/CD3δ …; experiment: SPR, biotinylated human CD3ε/δ on SA chip, monovalent IgG; response normalised to anti-huIgG capture and referenced to the unstressed sample; after 2 weeks at pH 6.0/40 °C
Experimental: (§3) All SPR experiments were performed on a Biacore T200 instrument (GE Healthcare) at 25° C. with HBS-P+ (10 mM HEPES, 150 mM NaCl pH 7.4, 0.05% Surfactant P20) as running and dilution buffer. Biotinylated human CD3ε/δ (see Example 3, SEQ ID NOs 41 and 42) as well as biotinylated anti-huIgG (Capture Select, Thermo Scientific, #7103262100) were immobilized on a Series S Sensor Chip SA (GE Healthcare, #29104992), resulting in surface densities of at least 1000 resonance units (RU). Anti-CD3 antibodies with a concentration of 2 μg/ml were injected for 30 s at a flow rate of 5 μl/min, and dissociation was monitored for 120 s. The surface was regenerated by injecting 10 mM glycine pH 1.5 for 60 s. Bulk refractive index differences were corrected by subtracting blank injections and by subtracting the response obtained from a blank control flow cell. For evaluation, the binding response 5 seconds after injection end was taken. To normalize the binding signal, the CD3 binding was divided by the anti-huIgG response (the signal (RU) obtained upon capture of the CD3 antibody on the immobilized anti-huIgG antibody). The relative binding activity was calculated by referencing each temperature stressed sample to the corresponding, non-stressed sample.

[4] = target: T1, Human CD3ε stalk-Fc(knob)-Avi/CD3δ …; experiment: SPR, Biacore T200, 25 °C; monovalent IgG captured by anti-PG antibody on C1 chip, CD3ε/δ-Fc as analyte; 1:1 Langmuir fit; triplicates
Experimental: as §1, §2

[5] = target: T2, Cynomolgus CD3ε stalk-Fc(knob)-Avi/CD3δ …; experiment: as above
Experimental: as §1, §2

[6] = target: T1, Human CD3ε stalk-Fc(knob)-Avi/CD3δ …; experiment: SPR, biotinylated human CD3ε/δ on SA chip, monovalent IgG; response normalised to anti-huIgG capture and referenced to the unstressed sample; after 2 weeks at pH 7.4/37 °C
Experimental: as §3

[7] = target: T1, Human CD3ε stalk-Fc(knob)-Avi/CD3δ …; experiment: SPR, monovalent IgG format
FOLR1 CD3 TCB P035.093 [8] = target: T3, FOLR1 CD3 TCB P035.093; experiment: SPR, Biacore T200, 37 °C; FOLR1 CD3 TCB P035.093 captured on FOLR1-Fc (C1 chip), anti-idiotypic antibody 1.2-100 nM as analyte; 1:1 Langmuir fit; n=5; Stdev 0.4 nM
T3 construct: Classical 2+1 TCB, knob-into-hole, PGLALA; the common light chain pairs with each of the Fabs; also called FOLR1 TCB CD3: P035.093
Experimental: (§4) Briefly, FOLR1-Fc was immobilized on a series s sensor chip C1 using standard amine coupling chemistry according to the manufacturer's instructions. […] The first flow cell was kept as mock surface. […] Dissociation was monitored for 300 s, the flow rate was set to 30 μl/min. The surface was regenerated by injecting 10 mM Glycine pH 2.0 for 60 s, followed by injecting 5 mM NaOH for 60 s at a flow rate of 5 μl/min. Bulk refractive index differences were corrected by subtracting the response obtained from flow cell one (mock surface) as well as by substracting buffer injections (double referencing). The derived curves were fitted to a 1:1 Langmuir binding model using the BIAevaluation software (GE Healthcare). […] All experiments were performed at 37° C. using HBS-N (10 mM HEPES, 150 mM NaCl pH 7.4, 0.05% Surfactant P-20).

FOLR1 CD3 TCB P035.093 [9] = target: T3, FOLR1 CD3 TCB P035.093; experiment: SPR, Biacore T200, 37 °C; FOLR1 CD3 TCB P035.093 captured on FOLR1-Fc (C1 chip), anti-idiotypic antibody as analyte; n=5; Stdev 140 s
Experimental: as §4

[10] = target: B5; experiment: cell-based or functional assay
[11] = target: TYRP1 TCB with CD3 binder CH2527; experiment: cell-based or functional assay
[12] = target: T4, TCB with CD3 binding Fab P035.093 (analyte of Table 9); experiment: SPR, Biacore T200; anti-idiotypic IgG amine-coupled on CM5 chip, TCB as analyte; 1:1 Langmuir fit; single dilution series
T4 construct: not shown: Target-cell arm (TYRP1 or FOLR1 16D5), constant regions and Fc
Experimental: (§5) SPR experiments were performed on a Biacore T200 with HBS-EP+ as running buffer (0.01 M HEPES pH 7.4, 0.15 M NaCl, 0.005% Surfactant P20 (BR-1006-69, GE Healthcare)). Three anti-idiotypic antibodies were directly immobilized by amine coupling on a CMS chip (GE Healthcare). A three-fold dilution series of the different T cell bispecifics (TCBs) was passed 20 over the ligand at 30 μl/min for 180 sec to record the association phase. The dissociation phase was monitored for 600 s and triggered by switching from the sample solution to HBS-EP+. The chip surface was regenerated after every cycle using one injection of 10 mM glycine pH 2.1 for 60 sec, followed by two injections of 30 sec. Bulk refractive index differences were corrected for by subtracting the response obtained on the reference flow cell 1. The affinity constants were derived from the kinetic rate constants by fitting to a 1:1 Langmuir binding using the Biaeval 5 software (GE Healthcare). The measure was performed with a single dilution series.
(§6) SPR analysis was evaluated with masks as IgGs (immobilized on CM5 chip) and TCBs with different CD3 binding Fabs as analytes.

[13] = target: T5, TCB with CD3 binding Fab CH2527 (analyte of Table 9); experiment: as above
T5 construct: also called CD3 CH2527; not shown: Target-cell arm (TYRP1 or FOLR1 16D5), constant regions and Fc
Experimental: as §5, §6

[14] = target: T1, Human CD3ε stalk-Fc(knob)-Avi/CD3δ …; experiment: SPR, biotinylated human CD3ε/δ on SA chip, TCB at 2 µg/ml; response normalised to anti-huIgG capture and referenced to the unstressed sample; after 2 weeks at pH 6.0/40 °C
Experimental: (§7) In order to assess the effect of the deamidation site removal and its effect on the stability of the antibodies, the optimized anti-CD3 antibodies (in TCB format) were incubated for 14 days at 37° C., pH 7.4 and at 40° C., pH 6 and further analyzed by SPR for their binding capability to human CD3ε/δ. Samples stored at −80° C. pH 6 were used as reference. The reference samples and the samples stressed at 40° C. were in 20 mM His, 140 mM NaCl, pH 6.0, and the samples stressed at 37° C. in PBS, pH 7.4, all at a concentration of 1.0 mg/ml. After the stress period (14 days) samples in PBS were dialyzed back to 20 mM His, 140 mM NaCl, pH 6.0 for further analysis.
as §3

[15] = target: T1, Human CD3ε stalk-Fc(knob)-Avi/CD3δ …; experiment: SPR, biotinylated human CD3ε/δ on SA chip, TCB at 2 µg/ml; response normalised to anti-huIgG capture and referenced to the unstressed sample; after 2 weeks at pH 7.4/37 °C
Experimental: as §7, §3

Binder	t1/2 [1]	t1/2 [2]	binding activity [%] [3]	Kd [4]	Kd [5]	binding activity [%] [6]	koff [4]	kon [4]	also measured
B1	8.25 min	11.8 min	100%	0.456 nM	0.224 nM				
B2	3.98 min		97%	4.94 nM		60%	0.0029 s⁻¹	587000 M⁻¹ s⁻¹	
B3	8.69 min	11.1 min	98%	0.771 nM	0.403 nM	95%	0.00133 s⁻¹	1.73e+06 M⁻¹ s⁻¹	fold of binding half-life over CD3orig [7]: > 2 fold; koff [5]: 0.00104 s⁻¹; kon [5]: 2.6e+06 M⁻¹ s⁻¹
B4									Kd (FOLR1 CD3 TCB P035.093 [8]): 1.5 nM; t1/2 diss (FOLR1 CD3 TCB P035.093 [9]): 7.43 min; IC50 (read off the curve): reduction of Jurkat NFAT luminescence by anti-ID 4.24.72 IgG, TYRP1 TCB (CD3 variant P035.093) at EC90 [10]: ~1 nM; IC50 (read off the curve): reduction of Jurkat NFAT luminescence by anti-ID 4.24.72 IgG, TYRP1 TCB (CH2527) at EC90 [11]: ~1 nM; Kd [12]: 2.1 nM; koff [12]: 0.000309 s⁻¹; kon [12]: 148000 M⁻¹ s⁻¹; Kd [13]: 4.7 nM; koff [13]: 0.000675 s⁻¹; kon [13]: 141000 M⁻¹ s⁻¹
B5									binding activity [%] [14]: 97%; binding activity [%] [15]: 95%
